# Measurements published in PMC3420232, “The Transmembrane Domains of TNF-Related Apoptosis-Inducing Ligand (TRAIL) Receptors 1 and 2 Co-Regulate Apoptotic Signaling Capacity” (PLoS ONE, 2012).
# B1: Flag-tagged recombinant human TRAIL (sTRAIL), unlabeled (ligand, UniProt P50591 95-281, looked up)
# chain: TSEETISTVQEKQQNISPLVRERGPQRVAAHITGTRGRSNTLSSPNSKNEKALGRKINSWESSRSGHSFLSNLHLRNGELVIHEKGFYYIYSQTYFRFQEEIKENTKNDKQMVQYIYKYTSYPDPILLMKSARNSCWSKDAEYGLYSIYQGGIFELKENDRIFVSVTNEHLIDMDHEASFFGAFLVG
# notes: TRAIL (TNF-related apoptosis-inducing ligand), human, soluble recombinant form (sTRAIL); no removal of the tag is told; also called FLAG-TRAIL; non-labeled TRAIL; source: bought: Axxora (Lörrach, Germany)
# Target: T1, wild-type human TRAILR2 (human, UniProt O14763 56-440)
# T1 construct: TRAIL receptor 2 (TRAILR2, DR5), human, wild type; the printed numbers (transmembrane region ending at 231, GIIIG at 212-216, stalk of about 34 aa) fit the long form; also called DR5; TRICK2; source: immortalized mouse fibroblasts (MF), stably transfected, on cells
# Assay: radioligand binding; competition on cells: 4x10^5 murine fibroblasts expressing the (chimeric) TRAIL receptor in PFA (PBS, 2% FCS, 0.002% sodium azide), 83 ng/ml 125I-TRAIL with or without unlabeled recombinant human TRAIL (83-5300 ng/ml), 4 hours on ice; cells spun through phthalate oil; 68 kDa used for TRAIL
# Conditions: one partner purified
binder,measurement,value
B1,IC50,3.5 nM
